{"source": "IntAct's records for PubMed 31515488", "parents": {"B1": {"name": "EF-hand domain-containing family member C2 (Homo sapiens), Q5JST6 (parent)", "chain": "MALPLLPGNSFNRNVGKEKFHKSQHWGFCNNVMMLVSDEKPGIGGEPLLGQKIKPKCSIYPKGDGSDVPSWVAFDKQVLSFDAYLEEEVLDKSQTNYRIRYYKIYFYPEDDTIQVNEPEVKNSGLLQGTSIRRHRITLPPPDEDQFYTVYHFNVGTEVVFYGRTFKIYDCDAFTRNFLRKIGVKVNPPVQCPEDPYMKIRREVVEHVEPLRPYESLDTLKQFLQYHGKILCFFCLWDDSVSMFGDRRELILHYFLCDDTIEIKELLPHSSGRDALKMFLRRSKLPKNCPPRVYQPGQITDRAVLNSYGDFIKNQADGYLFDRYKLGKVDQEFYKDSDLSLGVTINVWGRKVLLYDCDEFTKSYYKSKYGIENFTSVSCKPPSPPPKIERKFPPYNGFGSEEDSLRNCIDLKPTPHRRNFKKFMEKDSYGSKSNILRFFAKLVTDKCVDLDRMFVISYYLGDDTISVFEPIERNSGIAGGMFLKRSRVKKPGQEVFKSELSEYIKAEELYIGVTVNVNGYLFRLLNADEYTLNYMEQNTDKYPFSNLKLALQKLKQEEGKSRELKQVFKAADSKHTNMVDYNTFRDILMSLTVGNLAEQEFVTIARHYRVPEGTCSDMDFLIALAHEKFKKNMFENFDTFIYSCVYEDREKKNVLPTKDIKRLCKSSRLPLSDDLLESLLSRFEDSEKQIDYKSFFSALNWRKNPVPELQPASYLKERCEDVWLGMPSPIPAKYIDYWTFLKDAFGLEEE"}, "B2": {"name": "Uncharacterized protein C3orf62 (Homo sapiens), Q6ZUJ4 (parent)", "chain": "MHYIKTWSLLGEMSEKLRRCRKELTAAIDRAFEGVSYSQECTGQQRLELSAAPLSFSLPVHRLLCRRHPLAACSSAAPFAAVPCAPENENPAFATNHAPVNAKPHALCPERKPLTSKENVLMHSSILAPERESWRTAGEGENWRKENLRKDMERDLKADSNMPLNNSSQEVTKDLLDMIDHTSIRTIEELAGKIEFENELNHMCGHCQDSPFKEEAWALLMDKSPQKATDADPGSLKQAFDDHNIVETVLDLEEDYNVMTSFKYQIE"}, "B3": {"name": "Transcription factor 4 (Homo sapiens), P15884 (parent)", "chain": "MHHQQRMAALGTDKELSDLLDFSAMFSPPVSSGKNGPTSLASGHFTGSNVEDRSSSGSWGNGGHPSPSRNYGDGTPYDHMTSRDLGSHDNLSPPFVNSRIQSKTERGSYSSYGRESNLQGCHQQSLLGGDMDMGNPGTLSPTKPGSQYYQYSSNNPRRRPLHSSAMEVQTKKVRKVPPGLPSSVYAPSASTADYNRDSPGYPSSKPATSTFPSSFFMQDGHHSSDPWSSSSGMNQPGYAGMLGNSSHIPQSSSYCSLHPHERLSYPSHSSADINSSLPPMSTFHRSGTNHYSTSSCTPPANGTDSIMANRGSGAAGSSQTGDALGKALASIYSPDHTNNSFSSNPSTPVGSPPSLSAGTAVWSRNGGQASSSPNYEGPLHSLQSRIEDRLERLDDAIHVLRNHAVGPSTAMPGGHGDMHGIIGPSHNGAMGGLGSGYGTGLLSANRHSLMVGTHREDGVALRGSHSLLPNQVPVPQLPVQSATSPDLNPPQDPYRGMPPGLQGQSVSSGSSEIKSDDEGDENLQDTKSSEDKKLDDDKKDIKSITSNNDDEDLTPEQKAEREKERRMANNARERLRVRDINEAFKELGRMVQLHLKSDKPQTKLLILHQAVAVILSLEQQVRERNLNPKAACLKRREEEKVSSEPPPLSLAGPHPGMGDASNHMGQM"}, "B4": {"name": "SR-related and CTD-associated factor 8 (Homo sapiens), Q9UPN6 (parent)", "chain": "MEAVKTFNSELYSLNDYKPPISKAKMTQITKAAIKAIKFYKHVVQSVEKFIQKCKPEYKVPGLYVIDSIVRQSRHQFGQEKDVFAPRFSNNIISTFQNLYRCPGDDKSKIVRVLNLWQKNNVFKSEIIQPLLDMAAGIPPPVVTPVLASTTTAMSNTPGTPVTPVTPANVVQGLPDPWVSQITNTDTLAAVAQILQSPQGQQLQQLIQTLQIQQQKPQPSILQALDAGLVVQLQALTAQLTAAAAAANTLTPLEQGVSFNKKLMDRFDFGEDSEHSEEPKKEIPASQLSHVSESVNNSIFHQIAEQLQQQNLEHLRQQLLEQQQPQKATPQDSQEGTFGSEHSASPSQGSSQQHFLEPEVNLDDSIDIQQQDMDIDEGQDGVEEEVFEQEAKKVAVRSRSRTHSRSRSRSPRKRRSRSRSGSRKRKHRKRSRSRSRERKRKSSRSYSSERRAREREKERQKKGLPPIRSKTLSVCSTTLWVGQVDKKATQQDLTNLFEEFGQIESINMIPPRGCAYVCMVHRQDAFRALQKLSSGSYKIGSKVIKIAWALNKGVKTEYKQFWDVDLGVTYIPWEKVKVDDLEGFAEGGMIDQETVNTEWETVKSSEPVKETVQTTQSPTPVEKETVVTTQAEVFPPPVAMLQIPVAPAVPTVSLVPPAFPVSMPVPPPGFSPIPPPPFLRASFNPSQPPPGFMPPPVPPPVVPPPTIPPVVPTSLVQPSLSMTPETVKDVGFGSLVIPGGSVASNLATSALPAGNVFNAPTKQAEPEEKVPHLIDHQISSGENTRSVIPNDISSNAAILGGQPPNVTSNSGILGVQRPNVSSNSEILGVRPSNVSSSSGIIAAQPPNILNNSGILGIQPPSVSNSSGLLGVLPPNIPNNSGLVGVQPPNVPNTPGLLGTQPPAGPQNLPPLSIPNQRMPTMPMLDIRPGLIPQAPGPRFPLIQPGIPPQRGIPPPSVLDSALHPPPRGPFPPGDIFSQPERPFLAPGRQSVDNVTNPEKRIPLGNDNIQQEGDRDYRFPPIETRESISRPPPVDVRDVVGRPIDPREGPGRPPLDGRDHFGRPPVDIRENLVRPGIDHLGRRDHFGFNPEKPWGHRGDFDEREHRVLPVYGGPKGLHEERGRFRSGNYRFDPRSGPWNRGFGQEVHRDFDDRRRPWERQRDRDDRDFDFCREMNGNRLGRDRIQNTWVPPPHARVFDYFEGATSQRKGDNVPQVNGENTERHAQPPPIPVQNDPELYEKLTSSNEINKEKSDTVADIESEPVVESTETEGT", "partner": "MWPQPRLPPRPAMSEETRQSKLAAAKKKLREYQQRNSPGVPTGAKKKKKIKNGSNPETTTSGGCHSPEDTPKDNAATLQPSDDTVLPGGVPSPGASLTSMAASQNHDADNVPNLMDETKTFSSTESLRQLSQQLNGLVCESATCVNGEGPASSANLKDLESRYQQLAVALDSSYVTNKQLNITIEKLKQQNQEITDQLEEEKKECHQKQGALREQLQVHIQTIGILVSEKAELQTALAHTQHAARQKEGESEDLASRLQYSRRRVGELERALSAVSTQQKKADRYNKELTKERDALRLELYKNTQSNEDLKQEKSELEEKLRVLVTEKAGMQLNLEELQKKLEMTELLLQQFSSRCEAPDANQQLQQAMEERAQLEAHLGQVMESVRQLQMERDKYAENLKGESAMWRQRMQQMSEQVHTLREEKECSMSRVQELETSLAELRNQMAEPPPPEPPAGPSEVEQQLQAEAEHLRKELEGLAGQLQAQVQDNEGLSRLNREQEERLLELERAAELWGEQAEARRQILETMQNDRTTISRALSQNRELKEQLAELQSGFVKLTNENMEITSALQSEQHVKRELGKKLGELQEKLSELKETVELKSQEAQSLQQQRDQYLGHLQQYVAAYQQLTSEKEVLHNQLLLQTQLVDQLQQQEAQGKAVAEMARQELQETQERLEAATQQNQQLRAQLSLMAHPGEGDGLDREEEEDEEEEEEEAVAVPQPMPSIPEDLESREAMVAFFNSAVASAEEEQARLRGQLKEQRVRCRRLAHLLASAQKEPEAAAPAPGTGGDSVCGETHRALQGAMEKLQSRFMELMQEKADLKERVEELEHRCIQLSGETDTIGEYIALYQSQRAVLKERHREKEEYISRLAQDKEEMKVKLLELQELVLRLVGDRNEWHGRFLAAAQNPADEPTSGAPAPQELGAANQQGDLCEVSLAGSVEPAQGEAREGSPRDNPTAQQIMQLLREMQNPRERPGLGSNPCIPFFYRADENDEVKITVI"}, "B5": {"name": "Zinc finger protein RFP (Homo sapiens), P14373 (parent)", "chain": "MASGSVAECLQQETTCPVCLQYFAEPMMLDCGHNICCACLARCWGTAETNVSCPQCRETFPQRHMRPNRHLANVTQLVKQLRTERPSGPGGEMGVCEKHREPLKLYCEEDQMPICVVCDRSREHRGHSVLPLEEAVEGFKEQIQNQLDHLKRVKDLKKRRRAQGEQARAELLSLTQMEREKIVWEFEQLYHSLKEHEYRLLARLEELDLAIYNSINGAITQFSCNISHLSSLIAQLEEKQQQPTRELLQDIGDTLSRAERIRIPEPWITPPDLQEKIHIFAQKCLFLTESLKQFTEKMQSDMEKIQELREAQLYSVDVTLDPDTAYPSLILSDNLRQVRYSYLQQDLPDNPERFNLFPCVLGSPCFIAGRHYWEVEVGDKAKWTIGVCEDSVCRKGGVTSAPQNGFWAVSLWYGKEYWALTSPMTALPLRTPLQRVGIFLDYDAGEVSFYNVTERCHTFTFSHATFCGPVRPYFSLSYSGGKSAAPLIICPMSGIDGFSGHVGNHGHSMETSP"}, "B6": {"name": "Homeobox protein PKNOX1 (Homo sapiens), P55347 (parent)", "chain": "MMATQTLSIDSYQDGQQMQVVTELKTEQDPNCSEPDAEGVSPPPVESQTPMDVDKQAIYRHPLFPLLALLFEKCEQSTQGSEGTTSASFDVDIENFVRKQEKEGKPFFCEDPETDNLMVKAIQVLRIHLLELEKVNELCKDFCSRYIACLKTKMNSETLLSGEPGSPYSPVQSQQIQSAITGTISPQGIVVPASALQQGNVAMATVAGGTVYQPVTVVTPQGQVVTQTLSPGTIRIQNSQLQLQLNQDLSILHQDDGSSKNKRGVLPKHATNVMRSWLFQHIGHPYPTEDEKKQIAAQTNLTLLQVNNWFINARRRILQPMLDSSCSETPKTKKKTAQNRPVQRFWPDSIASGVAQPPPSELTMSEGAVVTITTPVNMNVDSLQSLSSDGATLAVQQVMMAGQSEDESVDSTEEDAGALAPAHISGLVLENSDSLQ"}}}
{"variants_of": "B1", "details": "with plod3_human PLOD3, O60568"}
{"variant": "N31S", "effect of a mutation on the interaction": "disrupting interaction strength"}
{"variants_of": "B1", "details": "with ptk6_human PTK6, Q13882"}
{"variant": "N31S", "effect of a mutation on the interaction": "disrupting interaction strength"}
{"variants_of": "B1", "details": "with ercc3_human ERCC3, P19447"}
{"variant": "N31S", "effect of a mutation on the interaction": "disrupting interaction strength"}
{"variants_of": "B1", "details": "with mk09_human MAPK9, P45984"}
{"variant": "N31S", "effect of a mutation on the interaction": "disrupting interaction strength"}
{"variants_of": "B2", "details": "with mr1l1_human MRFAP1L1, Q96HT8"}
{"variant": "N142D", "effect of a mutation on the interaction": "with no effect"}
{"variant": "E110K", "effect of a mutation on the interaction": "with no effect"}
{"variant": "V60M", "effect of a mutation on the interaction": "with no effect"}
{"variant": "M203I", "effect of a mutation on the interaction": "with no effect"}
{"variants_of": "B3", "details": "with defi6_human DEF6, Q9H4E7"}
{"variant": "N90S", "effect of a mutation on the interaction": "with no effect"}
{"variants_of": "B4", "details": "with goga2_human GOLGA2, Q08379"}
{"variant": "M1173V", "effect of a mutation on the interaction": "with no effect"}
{"variants_of": "B5", "details": "with if4e_human EIF4E"}
{"variant": "N355S", "effect of a mutation on the interaction": "with no effect"}
{"variants_of": "B5", "details": "with fhl3_human FHL3, Q13643"}
{"variant": "N355S", "effect of a mutation on the interaction": "disrupting interaction strength"}
{"variants_of": "B5", "details": "with bmp7_human BMP7, P18075"}
{"variant": "N355S", "effect of a mutation on the interaction": "with no effect"}
{"variants_of": "B5", "details": "with ercc3_human ERCC3, P19447"}
{"variant": "N355S", "effect of a mutation on the interaction": "with no effect"}
{"variants_of": "B6", "details": "with vp37c_human VPS37C"}
{"variant": "E103D", "effect of a mutation on the interaction": "with no effect"}
{"variant": "V265I", "effect of a mutation on the interaction": "with no effect"}
{"variants_of": "B6", "details": "with vp37c_human VPS37C", "remark": "another data set of the same source"}
{"variant": "V265I", "effect of a mutation on the interaction": "with no effect"}
